Assays:
C. albicans cells [1] = test: Cell membrane permeability assay (propidium iodide, flow cytometry); type: cell-based, Candida albicans; conditions: 90 min, 37 °C, range of concentrations, PI 9 μM
Protocol: (§1) To determine whether Kal-1 and Kdp15 exert a permeabilizing effect on fungal or bacterial membranes, the cellular influx of the fluorescent nucleic-acid-binding dye propidium iodide (PI) was assessed. As PI itself cannot permeate through an intact phospholipid bilayer, only permeabilized cells take up PI, resulting in DNA intercalation and fluorescence.
(§2) Flow cytometry was used to assess the ability of peptides to permeabilize plasma membranes of cells in incorporation of the DNA intercalating dye propidium iodide (PI). C. albicans or P. aeruginosa cells (10^6 cells/mL) in Tris buffer were incubated with two-fold serially diluted peptides for 90 min at 37 °C and subsequently reincubated with PI (9 μM, final concentration) for 5 min. The suspensions were centrifuged at 1100× g for 10 min and subsequently washed with Tris buffer to remove any unbound PI. The peptide Lfpep was used to disrupt the cytoplasmic membrane (positive control). Cell fluorescence was monitored using a Cytomics FC500 Flow Cytometer (Beckman Coulter Life Sciences, Indianapolis, IN, USA). The PI fluorescence was excited at a wavelength of 488 nm and emission was registered at 610 nm. For each treatment, 20,000 events were measured. Data were acquired and analyzed using CytExpert 2.1 software. Results were expressed as the percentage of PI-positive cells with respect to the unstained cells (control). […]

P. aeruginosa cells [2] = test: Oxygen consumption measurement (Clark-type electrode); type: cell-based, Pseudomonas aeruginosa; conditions: 5 × 10^6 cells/mL, peptides at IC50, piericidin A 32 μM, at least 30 min, 25 °C
Protocol: (§3) Figure 3 Effect of cellular respiration on the microbicidal activity of hLf γ-core-containing peptides. (A,C) Oxygen consumption was measured in C. albicans and P. aeruginosa cellular suspensions in the absence (control) or the presence of kaliocin-1 (Kal-1), Kdp15, or human lactoferrin (hLf), and piericidin A (positive control). (B,D) Effect of cellular respiration on the microbicidal activity of hLf γ-core-containing peptides. Cells (10^6 cells/mL) were pre-incubated (15 min, 37 °C) with 32 μM piericidin A and incubated for 90 min at 37 °C with the peptides hLf or BM2. The cell viability was determined by means of the plate counting method. The results are the mean ± SD from duplicates of at least three independent experiments. * p < 0.05, ** p < 0.01, and *** p < 0.001 were used.
(§4) C. albicans or P. aeruginosa cells were grown to the mid-logarithmic phase, washed twice in Tris buffer, and resuspended in the same buffer, as described in [9, 10]. Briefly, cells (5 × 10^6 cells/mL) were pre-incubated for 15 min at 37 °C with the peptides (IC50). […] Oxygen consumption was measured using a Clark-type oxygen electrode (Dual digital-model 20, Rank Brothers Ltd., Cambridge, UK) in a closed jacketed chamber maintained at 25 °C. […] The viability of the cells was determined at 30 min by removing aliquots from the oxygen chambers and plating the subsequent dilutions on SDA or TSA plates.

[3] = test system: Pseudomonas aeruginosa 10145 (PAO1); test: Microbicidal (spread-plate cell viability) assay, pseudomonacidal activity; type: cell-based; conditions: Tris buffer with 50 mM KCl vs without
Protocol: (§5) First, we tested the antimicrobial activity of Kal-1 and a shorter Kal-1-derived peptide (Kdp15), both containing the complete γ-core signature of human lactoferrin, against C. albicans and P. aeruginosa. Microbicidal (cidal) activity was determined after 90 min of incubation (37 °C; pH 7.4) with a range of concentrations of each hLf-derived peptide.
Figure 1 Cell viability and membrane permeabilization assays. C. albicans or P. aeruginosa (10^6 cells/mL) were incubated (90 min, 37 °C) with each peptide/protein at the indicated concentrations. Aliquots were plated on SDA or TSB, and colonies were counted after 24–48 h (C. albicans) or 24 h (P. aeruginosa). At each point, samples were stained with propidium iodide (PI) and intracellular PI incorporation, indicative of membrane permeabilization, was quantified by flow cytometry. The relative cell viability (blue lines) and cellular permeabilization (red lines) were calculated as the percentage of untreated cells. […]
Microbial susceptibility to the peptides was determined in a spread-plate assay as described previously. […] The cell viability values, expressed as colony forming units (CFUs), were determined relative to incubation without added peptides and represent the mean ± standard deviation (±SD) of at least three independent determinations. […]

C. albicans cells [4] = test: Measurement of intracellular ATP (BacTiter-Glo); type: cell-based, Candida albicans; conditions: C. albicans 10^6 cells/mL, candidacidal concentration, 90 min, 37 °C; BM2 0.25 μM
Protocol: Total ATP was measured by using the BacTiter-Glo^TM Microbial Cell Viability Assay (Promega Co., Madison, WI, USA) according to the manufacturer’s instructions. […] Aliquots (100 μL) were incubated (90 min at 37 °C) with kaliocin-1, Kdp15, or human lactoferrin and the BM2 peptide (positive control). One hundred microliters of incubation mix was transferred into a 96-well opaque white plate, mixed with an equal volume of the BacTiter-Glo reagent, and incubated for 15 min in the dark. The reagent used a thermostable luciferase to produce luminescence in an ATP-dependent manner. The emitted luminescence was detected by using a Varioskan Flash multimode reader (Thermo Scientific, Waltham, MA, USA) with a 10 s of shaking and 1 s integration time. A calibration curve was prepared for each experiment, with ATP standards ranging from 1 to 1000 nM. For assays performed in the presence of the BM2 peptide, samples were preincubated with 0.25 μM BM2 for 30 min at 37 °C. All the tests were performed in triplicate at least four times.

[5] = test system: Candida albicans ATCC 10231; test: Microbicidal (spread-plate cell viability) assay, candidacidal activity; type: cell-based
Protocol: as §5
Figure 1 Cell viability and membrane permeabilization assays. C. albicans or P. aeruginosa (10^6 cells/mL) were incubated (90 min, 37 °C) with each peptide/protein at the indicated concentrations. Aliquots were plated on SDA or […], and colonies were counted after 24–48 h (C. albicans) or 24 h (P. aeruginosa). At each point, samples were stained with propidium iodide (PI) and intracellular PI incorporation, indicative of membrane permeabilization, was quantified by flow cytometry. The relative cell viability (blue lines) and cellular permeabilization (red lines) were calculated as the percentage of untreated cells. Human lactoferrin (hLf) and the peptide Lfpep were used as negative and positive controls of cellular permeabilization, respectively.
Microbial susceptibility to the peptides was determined in a spread-plate assay as described previously. Briefly, two-fold serially diluted peptides were incubated (37 °C) with approximately 10^6 cells/mL in Tris buffer (10 mM Tris-HCl, pH 7.4). After 90 min of incubation with the peptides, aliquots were removed and plated in duplicate on an appropriate agar plate for each species (SDA for C. albicans, TSA for P. aeruginosa). The plates were incubated for 24–48 h at 30 °C (C. albicans) or 24 h at 37 °C (P. aeruginosa) for enumeration. The cell viability values, expressed as colony forming units (CFUs), were determined relative to incubation without added peptides and represent the mean ± standard deviation (±SD) of at least three independent determinations. For inhibition assays, the cell suspensions were preincubated (15 min at 37 °C) with the corresponding inhibitors before the addition of peptides. […]

[6] = test system: Candida albicans ATCC 10231; conditions: used in control assays; cited from earlier work
Protocol: as §5, with “peptide. The hLf γ-core-containing peptides were microbicidal in a concentration-dependent way (Figure 1). […] The IC50 es ...” for “peptide.”

[7] = test system: Pseudomonas aeruginosa 10145 (PAO1); conditions: used in control assays; cited from earlier work
Protocol: as §5, with “peptide. The hLf γ-core-containing peptides were microbicidal in a concentration-dependent way (Figure 1). […] The IC50 es ...” for “peptide.”

C. albicans cells [8] = test: Oxygen consumption measurement (Clark-type electrode); type: cell-based, Candida albicans; conditions: 5 × 10^6 cells/mL, peptides at IC50, piericidin A 32 μM, at least 30 min, 25 °C
Protocol: as §3, §4

P. aeruginosa cells [9] = test: Cell membrane permeability assay (propidium iodide, flow cytometry); type: cell-based, Pseudomonas aeruginosa; conditions: 90 min, 37 °C, range of concentrations, PI 9 μM
Protocol: as §1, §2

B1: hLf: Recombinant human apo-lactoferrin, PM H^+-ATPase inhibitor control (protein, UniProt P02788 20-710, looked up)
Lactotransferrin: GRRRSVQWCAVSQPEATKCFQWQRNMRKVRGPPVSCIKRDSPIQCIQAIAENRADAVTLDGGFIYEAGLAPYKLRPVAAEVYGTERQPRTHYYAVAVVKKGGSFQLNELQGLKSCHTGLRRTAGWNVPIGTLRPFLNWTGPPEPIEAAVARFFSASCVPGADKGQFPNLCRLCAGTGENKCAFSSQEPYFSYSGAFKCLRDGAGDVAFIRESTVFEDLSDEAERDEYELLCPDNTRKPVDKFKDCHLARVPSHAVVARSVNGKEDAIWNLLRQAQEKFGKDKSPKFQLFGSPSGQKDLLFKDSAIGFSRVPPRIDSGLYLGSGYFTAIQNLRKSEEEVAARRARVVWCAVGEQELRKCNQWSGLSEGSVTCSSASTTEDCIALVLKGEADAMSLDGGYVYTAGKCGLVPVLAENYKSQQSSDPDPNCVDRPVEGYLAVAVVRRSDTSLTWNSVKGKKSCHTAVDRTAGWNIPMGLLFNQTGSCKFDEYFSQSCAPGSDPRSNLCALCIGDEQGENKCVPNSNERYYGYTGAFRCLAENAGDVAFVKDVTVLQNTDGNNNEAWAKDLKLADFALLCLDGKRKPVTEARSCHLAMAPNHAVVSRMDKVERLKQVLLHQQAKFGRNGSDCPDKFCLFQSETKNLLFNDNTECLARLHGKTTYEKYLGPQYVAGITNLKKCSTSPLLEACEFLRK
modifications: apo form
PI fluorescent cells (plasma membrane permeabilization), C. albicans (C. albicans cells [1]): not significantly increased | oxygen consumption of P. aeruginosa in presence of the substance (P. aeruginosa cells [2]): inability of the native protein hLf to inhibit | effect of high external K^+ on pseudomonacidal activity [3]: seemed to protect | increment in intracellular ATP (iATP) level compared to untreated control (C. albicans cells [4]): ~ 6 fold | IC50 ([5]; 90 min, 37 °C, 10 mM Tris-HCl pH 7.4, 10^6 cells/mL, CFU plating, estimated, read-out: IC50 (concentration that caused 50% reduction in viable counts) against C. albicans): 3000 nM | effect of high external K^+ on candidacidal activity ([5]; Tris buffer with 50 mM KCl vs without): seemed to protect | effect of Tok1p K^+ channel block (TEA^+) on candidacidal activity ([5]; cells pre-incubated 15 min with 10 mM TEA^+): less susceptible | previously reported microbicidal concentration against C. albicans [6]: 5 µM | previously reported microbicidal concentration against P. aeruginosa [7]: 1 µM | oxygen consumption of C. albicans in presence of the substance (C. albicans cells [8]): inability of the native protein hLf to inhibit | PI fluorescent cells (plasma membrane permeabilization), P. aeruginosa (P. aeruginosa cells [9]): not significantly increased

From article PMC11395145, “The Archetypal Gamma-Core Motif of Antimicrobial Cys-Rich Peptides Inhibits H^+-ATPases in Target Pathogens” (International Journal of Molecular Sciences, 2024)
